Biological target: Cy3B-SSB (W88C SSB labeled with Cy3B, one per monomer) W89C (UniProt P0AGE0)
Assay: bulk fluorescence

ssDNA (unspecified, bulk assay)
Kd: < 2.5 nM

Reference: paper PMC2910053
